Consider 1 protein from paper PMC8346289 (Journal of medicinal chemistry, 2014).

This data set concerns the molecule itself. The data set is described as follows: crystal structure.

B1: K47A mutant of human thymidylate synthase (enzyme)
chain: MPVAGSELPRRPLPPAAQERDAEPRPPHGELQYLGQIQHILRCGVRADDRTGTGTLSVFGMQARYSLRDEFPLLTTKRVFWKGVLEELLWFIKGSTNAKELSSKGVKIWDANGSRDFLDSLGFSTREEGDLGPVYGFQWRHFGAEYRDMESDYSGQGVDQLQRVIDTIKTNPDDRRIIMCAWNPRDLPLMALPPCHALCQFYVVNSELSCQLYQRSGDMGLGVPFNIASYALLTYMIAHITGLKPGDFIHTLGDAHIYLNHIEPLKIQLQREPRPFPKLRILRKVEKIDDFKAEDFQIEGYNPHPTIKMEMAV
Turning to B1, the binding result is given as “binds”.
